B1: Proliferation-associated protein 2G4 (Homo sapiens), Q9UQ80 (parent)
chain: MSGEDEQQEQTIAEDLVVTKYKMGGDIANRVLRSLVEASSSGVSVLSLCEKGDAMIMEETGKIFKKEKEMKKGIAFPTSISVNNCVCHFSPLKSDQDYILKEGDLVKIDLGVHVDGFIANVAHTFVVDVAQGTQVTGRKADVIKAAHLCAEAALRLVKPGNQNTQVTEAWNKVAHSFNCTPIEGMLSHQLKQHVIDGEKTIIQNPTDQQKKDHEKAEFEVHEVYAVDVLVSSGEGKAKDAGQRTTIYKRDPSKQYGLKMKTSRAFFSEVERRFDAMPFTLRAFEDEKKARMGVVECAKHELLQPFNVLYEKEGEFVAQFKFTVLLMPNGPMRITSGPFEPDLYKSEMEVQDAELKALLQSSASRKTQKKKKKKASKTAENATSGETLEENEAGD
partner: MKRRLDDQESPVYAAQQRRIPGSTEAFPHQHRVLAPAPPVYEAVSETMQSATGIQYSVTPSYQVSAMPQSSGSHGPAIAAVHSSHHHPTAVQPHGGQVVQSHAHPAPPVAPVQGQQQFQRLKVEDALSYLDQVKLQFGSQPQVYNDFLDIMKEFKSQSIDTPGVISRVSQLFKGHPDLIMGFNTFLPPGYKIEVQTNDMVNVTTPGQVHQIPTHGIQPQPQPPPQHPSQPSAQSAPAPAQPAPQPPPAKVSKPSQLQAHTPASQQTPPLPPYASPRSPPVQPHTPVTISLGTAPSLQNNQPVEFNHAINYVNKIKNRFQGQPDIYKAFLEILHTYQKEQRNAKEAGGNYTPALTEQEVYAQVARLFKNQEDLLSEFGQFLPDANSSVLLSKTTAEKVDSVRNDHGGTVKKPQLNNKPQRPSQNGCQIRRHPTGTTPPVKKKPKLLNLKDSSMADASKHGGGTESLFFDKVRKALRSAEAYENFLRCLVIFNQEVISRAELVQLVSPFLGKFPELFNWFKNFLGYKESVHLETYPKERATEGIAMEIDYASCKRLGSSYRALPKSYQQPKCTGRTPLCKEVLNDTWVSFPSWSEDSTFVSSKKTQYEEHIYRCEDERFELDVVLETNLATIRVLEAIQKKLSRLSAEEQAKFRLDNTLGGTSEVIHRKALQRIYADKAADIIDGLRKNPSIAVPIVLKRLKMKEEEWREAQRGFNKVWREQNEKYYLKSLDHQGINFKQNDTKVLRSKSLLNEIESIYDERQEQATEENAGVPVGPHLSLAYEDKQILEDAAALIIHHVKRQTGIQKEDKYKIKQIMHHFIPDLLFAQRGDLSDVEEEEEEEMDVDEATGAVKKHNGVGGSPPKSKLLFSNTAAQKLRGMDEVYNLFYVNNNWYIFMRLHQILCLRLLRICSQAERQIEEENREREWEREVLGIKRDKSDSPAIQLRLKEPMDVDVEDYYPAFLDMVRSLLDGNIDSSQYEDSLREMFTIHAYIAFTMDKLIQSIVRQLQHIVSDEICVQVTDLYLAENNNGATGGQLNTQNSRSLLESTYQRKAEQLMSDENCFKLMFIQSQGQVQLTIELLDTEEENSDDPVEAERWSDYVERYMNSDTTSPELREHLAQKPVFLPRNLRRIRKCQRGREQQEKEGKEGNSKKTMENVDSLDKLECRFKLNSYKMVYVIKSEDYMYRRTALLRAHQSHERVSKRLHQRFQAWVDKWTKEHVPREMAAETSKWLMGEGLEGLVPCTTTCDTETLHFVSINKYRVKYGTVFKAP

Variants of: B1
Details: with sin3a_human SIN3A

effect of a mutation on the interaction	Variant
disrupting interaction	MSGEDEQQEQTIAEDLVVTKYKMGGDIANRVLRSLVEASSSGVSVLSLCEKGDAMIMEETGKIFKKEKEMKKGIAFPTSISVNNCVCHFSPLKSDQDYILKEGDLVKIDLGVHVDGFIANVAHTFVVDVAQGTQVTGRKADVIKAAHLCAEAALRLVKPGNQNTQVTEAWNKVAHSFNCTPIEGMLSHQLKQHVIDGEKTIIQNPTDQQKKDHEKAEFEVHEVYAVDVLVSSGEGKAKDAGQRTTIYKRDPSKQYGLKMKTSRAFFSEVERRFDAMPFTLRAFEDEKKARMGVVECAKHELLQPFNVLYEKEGEFVAQFKFTVLLMPNGPMRITSGPFEPDLYKSEMEVQDAELKAAAQSSASRKTQKKKKKKASKTAENATSGETLEENEAGD [L357A;L358A]

From IntAct's records for PubMed 16254079
